# Experimental data published in IntAct's records for PubMed 11264384.
# Target: nef_hv1a2 nef (UniProt P03407)
# Sequence (P03407 whole entry): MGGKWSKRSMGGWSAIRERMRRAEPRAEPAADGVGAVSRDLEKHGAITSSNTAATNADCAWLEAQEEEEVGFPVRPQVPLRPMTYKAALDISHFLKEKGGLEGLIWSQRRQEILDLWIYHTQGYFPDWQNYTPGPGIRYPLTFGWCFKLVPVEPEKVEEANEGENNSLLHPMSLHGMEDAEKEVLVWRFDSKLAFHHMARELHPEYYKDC
substance,measurement,value
T-cell surface glycoprotein CD4 (Homo sapiens) (from UniProt P01730) L438A;L439A,effect of a mutation on the interaction,disrupting interaction strength
